Results taken from the DeepSol protein solubility set.

assay: soluble on expression in E. coli; label from the status in PepcDB or PDB records

**Q.** For “MANSFTFWNDCVEPEDLEEMWMDPAVSAEWIDVGETKGQKVHLSRDPDGQPYLTQTEMRAVSDITVRRHFDSILDSEMICAIAELESDRKPLIMRYSKKTKETGLGILQVFEKTAAWLAGGQGYQAYNVDDNPDLLHKPFINVYFGAAYLKWLTDYQNNQRSEEFVVRAYNGGTKKATHKSTLPYWKRYLAVKESLPSRKHGDAGPSSFRPTNPASPGSNTDFTYWDSRASPEDMEDMWNQSEICKEWTKSKEERGKVRFSQDGEKRPYLSRGELKAVAEIIVSKYFSTKGIRVPLVCAIADTVCMRFVNGIKKHVGILGVDYSTASWLYSELGYRAYRVDSADDLTKPFISMYFGVAYLVWLSEYEGSQRSNQFIVQAYMKGPDHVDLEESCPLWLKFEQALSYYEESKRDSGSCVIL”, which “soluble on expression in E. coli” value is on record?
**A.** not soluble

**Q.** For “MANSMIFKAEGNQLIAERVFDAPRELVFKMFTEAEHLKNWWGPRGWDLTVCNIDFRPGGSWHFCMKCVDENQGDFYGYESWGKALYREIVDGEKIVYVDYFSDSEGNLSEEMPAAEITLTFIDLGGKTKIVNQVEYPSAEELQKGLDMGMEQGFTETWDRLVEYLQDIQLEHHHHHH”, which “soluble on expression in E. coli” value is on record?
**A.** not soluble

**Q.** With “MAPALVQRRKKVAMIGSGMIGGTMGYLCALRELADVVLYDVVKGMPEGKALDLSHVTSVVDTNVSVRAEYSYEAALTGADCVIVTAGLTKVPGKPDSEWSRNDLLPFNSKIIREIGQNIKKYCPKTFIIVVTNPLDCMVKVMCEASGVPTNMICGMACMLDSGRFRRYVADALSVSPRDVQATVIGTHGDCMVPLVRYITVNGYPIQKFIKDGVVTEKQLEEIAEHTKVSGGEIVRFLGQGSAYYAPAASAVAMATSFLNDEKRVIPCSVYCNGEYGLKDMFIGLPAVIGGAGIERVIELELNEEEKKQFQKSVDDVMALNKAVAALQAPG” as the sequence, how does the “soluble on expression in E. coli” value read?
**A.** soluble

**Q.** With “MAPHPEAAALLARSHRLGADPRNTNYAGGNASAKGTATDPVTGGDVELMWVKGSGGDLGTLTEAGLAVLRLDRLHALKGVYPGVEREDEMVAAFDYCLHGKGGAAPSIDTAMHGLVDAAHVDHLHPDSGIALACAADGEKLTAECFGDSVAWVPWRRPGFQLGLDIAAVKEANPQTIGCVLGGHGITAWGATAEECERNSLHIIRTAEAFLAERGKAEPFGPVIEGYAALEHHHHHH” as the sequence, how does the “soluble on expression in E. coli” value read?
**A.** not soluble

**Q.** Which “soluble on expression in E. coli” value does the source give for “MAPKFTLNQERDNDRERTRASYNNDRRRNDYDPRACYKCGKLGHFARSCHVVTQPTTAYITCYFCSEEGHRSNGCPNKRTDQVNPKGHCYWCGNQDHRFNLIIWRSRCLFRLMKPKYAF” here?
**A.** soluble

**Q.** With “MAPKSILITGANRGIGLGLLKQFIKNKDVQIIIGTCRDPSNATELNSIKDTRVHILQLDIDCDDSIRKLGAEVEKLVGEDGLTVLINNAGIFVPYDIDGEKSRSTLIRQLETNTISTVLITQELLPLLKRAAAKNRGEGYSINRSAIINISSTAGSITKIDASYNIPLVAYRMSKSALNSFGKSCSVDLAKYHILVTTFCPGWVKTDMGGANGKLEIDDATKTLSDNILILGDAHHGAYLNADLTVIPN” as the sequence, how does the “soluble on expression in E. coli” value read?
**A.** soluble

**Q.** For “MAPSSLSQSFDHAAQTPEIFEKVPSRTVGRKATITKEELFQAALNLIGPEKSISSLSLREVAREAGIAPNSFYRHFRDIDELAIDLINRAGLVLRHIIRESRLQASKQNSIIRSSVEVFIQQLDADEGNLSLLLREAYTGSKSYKEAVERQLNFFQQELQEDLIRLERLNHSRLSHPDLVARAITQLVFTMGAKVLDLPINQRTAVAEQTMIMIRMILEGARHLDESKIR”, which “soluble on expression in E. coli” value is on record?
**A.** soluble

**Q.** Which “soluble on expression in E. coli” value does the source give for “MAQEEEDVRDYNLTEEQKAIKAKYPPVNRKYEYLDHTADVQLHAWGDTLEEAFEQCAMAMFGYMTDTGTVEPLQTVEVETQGDDLQSLLFHFLDEWLYKFSADEFFIPRVGRRIFIVQAPSGNRSQSNNIFSNAGL” here?
**A.** soluble

**Q.** With “MAQHTYDEESVQELLGWAKKMLETKNYPTEKYQVNACTSIIDGKLYLESLISMISKNWENPTFHPTIEQLWEYREKWEGQKE” as the sequence, how does the “soluble on expression in E. coli” value read?
**A.** not soluble

**Q.** For “MAQLFFRYGAMNSGKTIEILKVAHNYEEQDKSVIILTSGLDNRDGVGYVASRIGLKREATPVFDDTNIFEIVKQTNPDAACVLIDEAQFLKKHHVLELADIVDELKIPVMTFGLKNDFRNELFEGSKYLLLYADKIEEMKTICWFCRKKAIMNLRFHDGQPVYEGEQVQIGGNEAYYPVCRHHYFYPPKLTKLEHHHHHH”, which “soluble on expression in E. coli” value is on record?
**A.** soluble

**Q.** With “MAQRYKRMSSTDINEYMPENLAKAIANPLFPALDSLLRAGRHVSSDDLDNHAFLSDFEPDLALFYQRYHTELVRAPEGFFYLRPRSTSLINRSVLSELDMLVGKVLCFLYLSPERLAHEGIFTNQELYDELLTLVEEKKLMKLVTNRASGSDLDREKLFEKVRTSLRRLRRLGMVITIGDTGKFRITEAVFRFGADVRLGGDVREAQLRLIRDGEAVVHTPEPSQQSLLENPTAEYDEEQTEWEDEALEHHHHHH” as the sequence, how does the “soluble on expression in E. coli” value read?
**A.** soluble

**Q.** With “MAQSETVERILDAAEQLFAEKGFAETSLRLITSKAGVNLAAVNYHFGSKKALIQAVFSRFLGPFCASLEKELDRRQAKPEAQHATLEDLLHLLVSQAMAVKPRSGNDLSIFMRLLGLAFSQSQGHLRKYLEEVYGKVFRRYMLLVNEAAPKLPPIELFWRVHFMLGAAAFSMSGIKALRAMAETDFGVNTSTEQVMHLMVPFFAAGMRAESGIDDPLLAGAQLRPRNKTPAKA” as the sequence, how does the “soluble on expression in E. coli” value read?
**A.** soluble

**Q.** Which “soluble on expression in E. coli” value does the source give for “MAQVLRGTVTDFPGFDERADAETLRKAMKGLGTDEESILTLLTSRSNAQRQEISAAFKTLFGRDLLDDLKSELTGKFEKLIVALMKPSRLYDAYELKHALKGAGTNEKVLTEIIASRTPEELRAIKQVYEEEYGSSLEDDVVGDTSGYYQRMLVVLLQANRDPDAGIDEAQVEQDAQALFQAGELKWGTDEEKFITIFGTRSVSHLRKVFDKYMTISGFQIEETIDRETSGNLEQLLLAVVKSIRSIPAYLAETLYYAMKGAGTDDHTLIRVMVSRSEIDLFNIRKEFRKNFATSLYSMIKGDTSGDYKKALLLLCGEDD” here?
**A.** soluble

**Q.** Which “soluble on expression in E. coli” value does the source give for “MARKKVQRKLDGWKSKEWYNIEAPAYLNRVIVGTTMAGDPSLLVGRNVETTVGELTNDMTKNNTKVILRVNNVVGDIATTDLMGHELTTDYVRSIVKRQTSRIDANVDVRTKDGFVIRVKPTCFTIKRARSSQMQAIREMMVDIVKKRASETDFETFMQEAILGRLSAAIYRQAKFIYPLRRVEIRKTQVEAMPAAAPAAPAAALEHHHHHH” here?
**A.** soluble

**Q.** With “MARKLIDISVPLQNDVPADPPGNHPTIQYIDHQQGLPRMLQFFPGLKAEDLPDGQGWAVEQVSLSTHNGTHLDAPWHFHPTMNRGERALTIDEVPLDWCLQPGVKLDFRHLPDGYVVTAKDVENELERIGHTLAPLEIVVVNTSAGAKFGRPDYVNSGCGVGYEATMYLLERGVRLTGTDAWSWDAPFVFTAQRYAETKDASLIWEGHKASRHIGYCHLEKLHNLELLPATGFMVSCFPVKIERASAGWTRAVAILNDAAALEHHHHHH” as the sequence, how does the “soluble on expression in E. coli” value read?
**A.** soluble

**Q.** For “MARKSKGSRSSTRAVKQTDHFQVDVKLQSRPDHVRAPRANNENVNYTPVKEAKIQKILDHQLYNTHYVEYQVEMSDGTEEMLTEFDFDNKKTQKMLAEYKFKVTELEDDGSKEYVVEKIVAHRYPNDRLNQPLYLVMWRGFPDPVSNTEMWGEELENCQELLDAYNEEHDIDLSKTVMNKPPKKSKHQDTSDDSEESEDEEEKSPRKRSSKKRRAASVSDSDSDSDSDFDKKKWKKNKAKRSKRDDSSDDDSEMERRRKKSKKSKKSKKFKKSEKRKRAVNDSSSDDEDEEEKPEKRSKKSKKAVIDSSSEDEEEEKSSKKRSKKSKKESDEEQQASDSEEEVVEVKKNSKSPKKTPKKTAVKEESEESSGDEEEEVVKKKKSSKINKRKAKESSSDEEEEVEESPKKKTKSPRKSSKKSAAKEESEEESSDNEEEEEVDYSPKKKVKSPKKSSKKPAAKVESEEPSDNEEEEEEVEESPIKKDKTPRKYSRKSAAKVESTESSGNEEEEEVEESPKKKGKTPRKSSKKSAAVEESDNEEEDVEESPKKRTSPRKSSKKRAAKEESEESSDNEVEEVEDSPKKNDKTLRKSPRKPAAKVESEESFGNEEEEEVEESPKKKGKTPRKSSKKSAAKEESEESSDDEEEEQAEETNGSHTESPTKSKTDESDNSTSSDEDDE”, which “soluble on expression in E. coli” value is on record?
**A.** not soluble

**Q.** With “MARKTKQQALETRQHILDVALRLFSQQGVSATSLAEIANAAGVTRGAIYWHFKNKSDLFSEIWELSESNIGELEIEYQAKFPDDPLSVLREILVHILEATVTEERRRLLMEIIFHKCEFVGEMVVVQQAQRSLCLESYDRIEQTLKHCINAKMLPENLLTRRAAILMRSFISGLMENWLFAPQSFDLKKEARAYVTILLEMYQLCPTLRASTVNGSP” as the sequence, how does the “soluble on expression in E. coli” value read?
**A.** not soluble

**Q.** Which “soluble on expression in E. coli” value does the source give for “MARNNNQVKRDAAGRLFFLLDRQYRLVIQQVVALKPHVLAIAARQGMFVAKAYRFPVAAARHAWLLAALRKAGFSAAPAPMPIGRGGVVEAGGCYWLLTEYVAGARPISFAAWADAADGLHLLERYHTITANIASSKQEAMGLPRAQLYDKWRRRYEEFCRHLPVVETIMDKEDILFTLSWADYCLSTCREHAPELTADSAAIIHGDVASHNFLRTTTGQMYLIDYDAAALASPGLDYCQYANRLLPYIGWSYSTLARFAPLRRWLEKRWFLHALLFPADVFREWRSAAARRRPLVFDRKRRERFVRRLYAMLQ” here?
**A.** not soluble

**Q.** For “MARNPEEAQRVVIPLGSEEALAFLGQADRNLKRLRSLFRTYLGDEVRLVSRGEQVEVLGPPEAVEKAERALRDLLALLRQGAELDEATLEQAVRLAAEGEGLYQATEPELELQLPGRLRPKTPGQKRYVEAIARHDITFGIGPAGTGKTYLAVAMAVSHLRARRVKRIILTRPAVEAGEKLGFLPGDIQAKVDPYLRPLYDALFDMIDAERFEQYLQSGIIEVAPLAFMRGRTLNDAFIILDEAQNTTPEQMKMFLTRMGFSSKMVITGDVTQIDLPKHQRSGLVEAIRILKGIEGIAFVHFKESDVVRHPLVARIIKAYEEAERGGGGAQ”, which “soluble on expression in E. coli” value is on record?
**A.** soluble

**Q.** For “MARTEKKKDVVIVGLGWTGAIAGMELAAEGLEIVALERGRDQNTVPEFKYPNQIDELTYGVRLVNMQHPSQQTVTVRRNDAETALPYRSMGSFLPANGVGGAGTHWNGLLWRPQPQEIQLRSYVKERWGESIIPEGMNLMDYPVTYDELEPFFTRFDEVAGISGKAGNLKGKIQPGGNPFEGWRSSEYPMPPMPPTYDATKFRDAAQAMGYHPFPAPAGVASTAYVNPYGMQMAPCNFCGFCERFGCYQYSKSSPQTAILDALKRKPNFSYRTHAEVLRIESSADGKTATGVTYFDAAAQEEVFQPADLVILAAYQLNNVHLLLLSGIGEPYDPATNTGVTGKNYAYQMNGGVTMFFKDANFNPFIGHGSNGFCIDDFSVNQNDFGALGFIGGAYWRSGTFNGQPIRSMILPAGTPGWGAGWKKAIGQWYGHSMSIGTHGSHMAYRANHLDLDPTYKDPHGRPLMRMTFNWQDNDLRMNQYMKLKAGEVGKAMKPDLMQLGFKGPGAMYDVRPYQTTHNTGGHIMSRDPREGVVNRYCQAWDKHNVFVMGAGNFVQNTQYNPTGMVGALAYWTIHAIRTQYLRDPRPLVLEHHHHHH”, which “soluble on expression in E. coli” value is on record?
**A.** not soluble

**Q.** Which “soluble on expression in E. coli” value does the source give for “MARTVDLELEAQIDILRDNNKKYENILKLAQTLSTQLFQMVHTQKQLGDAFADLSLKSLELHEKFGYNADTQKLLAKNGETLLGAINFFIASVNTLVNKTIEDTLMTVKQYENARVEYDAYRTDLEELNLGPRDANTLPKIEQSQHLFQIHKEKYDKMRSDVSVKLKFLEENKVKVLRNQLVLFHSAVAAYFAGNQKQLELTLKQFHVRLKTPGVDAPSWLEEQ” here?
**A.** soluble
